# Paper PMC3788760
# Experiments:
# [1] = biological target: a-domain of human PDI (human)
# [2] = biological target: full-length human protein disulfide isomerase (PDI) (human) (UniProt P07237)
# [3] = biological target: human PDI fragment abb’xa’ (human)
# [4] = biological target: a-domain of human PDI (human); assay: ITC; 37.0°C; VP-ITC; 200 µM Tau244–372 in the syringe injected into 8.1 µM full-length PDI or domain a in the cell; 10 mM HEPES pH 7.4, 100 mM NaCl, no DTT; single set of identical sites model
# [5] = biological target: full-length human protein disulfide isomerase (PDI) (human) (UniProt P07237); assay: as above
# [6] = biological target: a-domain of human PDI (human); assay: ITC; 25.0°C; VP-ITC; 200 µM Tau244–372 (or 40 µM full-length Tau) in the syringe injected into 8.1 µM PDI or fragment (or 3.24 µM PDI) in the cell; 10 mM HEPES pH 7.4, 100 mM NaCl, no DTT; single set of identical sites model
# [7] = biological target: full-length human protein disulfide isomerase (PDI) (human) (UniProt P07237); assay: as above
# [8] = biological target: human PDI fragment abb’xa’ (human); assay: as above
# human Tau fragment Tau244–372, sequence (P10636 561-689): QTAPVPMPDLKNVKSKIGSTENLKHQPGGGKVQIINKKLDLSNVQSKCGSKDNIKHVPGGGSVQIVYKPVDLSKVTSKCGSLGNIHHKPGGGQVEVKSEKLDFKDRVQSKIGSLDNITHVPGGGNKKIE
substance,measurement,setting,value
human Tau fragment Tau244–372 (from UniProt P10636-8 244-372) (domain or fragment),"lag time of Tau244–372 fibrillization (ThT, 37°C), 0–20 µM domain a (184 min without PDI); value at 20 µM",[1],253 min
same,"rate constant k for the growth of Tau244–372 fibrils (ThT), 0–20 µM domain a (falls from 36.7 without PDI); value at 20 µM",[1],0.0176 min⁻¹
same,"t m of Tau244–372 fibrillization (ThT), 0–20 µM domain a (238.3 min without PDI); value at 20 µM",[1],366 min
same,"lag time of Tau244–372 fibrillization (ThT) with 100 g/l Ficoll 70, 20 µM full-length PDI (∼0 without PDI)",[2],44.8 min
same,"lag time of Tau244–372 fibrillization (ThT, 37°C, 10 µM Tau244–372, heparin, 1 mM DTT), 0–20 µM full-length PDI (184 min without PDI); value at 20 µM",[2],242 min
same,"rate constant k for the growth of Tau244–372 fibrils (ThT) with 100 g/l Ficoll 70, 20 µM full-length PDI (54.9 without PDI)",[2],0.0314 min⁻¹
same,"rate constant k for the growth of Tau244–372 fibrils (ThT), 0–20 µM full-length PDI (falls from 36.7 without PDI); value at 20 µM",[2],0.0224 min⁻¹
same,"t m (time to 50% of maximal ThT fluorescence) of Tau244–372 fibrillization, 0–20 µM full-length PDI (238.3 min without PDI); value at 20 µM",[2],331 min
same,"t m of Tau244–372 fibrillization (ThT) with 100 g/l Ficoll 70, 20 µM full-length PDI (11.6 min without PDI)",[2],108 min
same,"lag time of Tau244–372 fibrillization (ThT, 37°C), 0–20 µM abb’xa’ (184 min without PDI); value at 20 µM",[3],247 min
same,"rate constant k for the growth of Tau244–372 fibrils (ThT), 0–20 µM abb’xa’ (falls from 36.7 without PDI); value at 20 µM",[3],0.0233 min⁻¹
same,"t m of Tau244–372 fibrillization (ThT), 0–20 µM abb’xa’ (238.3 min without PDI); value at 20 µM",[3],333 min
same,Kd,[4],1.34 µM
same,dH,[4],-4.34 kcal/mol
same,stoichiometry N,[4],0.56
same,Kd,[5],4.83 µM
same,dH,[5],-9.27 kcal/mol
same,stoichiometry N,[5],1.02
same,Kd,[6],0.48 µM
same,dH,[6],-4 kcal/mol
same,stoichiometry N,[6],0.489
same,Kd,[7],3.46 µM
same,dH,[7],-8.6 kcal/mol
same,stoichiometry N,[7],0.8
same,Kd,[8],7.35 µM
same,dH,[8],-5.9 kcal/mol
same,stoichiometry N,[8],0.97
